{
  "source": "paper PMC8721586",
  "about": "“Enzymatic Switching Between Archaeal DNA Polymerases Facilitates Abasic Site Bypass” (Frontiers in Microbiology, 2021)",
  "proteins": {"B1": {"name": "Dpo2 (SisDpo2) (Saccharolobus islandicus REY15A) (protein)", "chain": "MREMEEYVLDAYPVKGGVKLFLSNFKEKSIRTTFPVYAITDNPDVVLQHPEVKYYEEEKWKTLNGKEAKVYRFEVESFDAYYYMRKRLNVVNETPTVLSQTLYRLGIKPFRRLNSSDDEFPKVTIAKVVPLDWYGESLKGKVFEVKINNEVRRFYEKPEVEADITECLGEACNYVKSNVKIRIEKKRSPVSAKGLIEWSLISLTPLHEIAYATIGKVLTTNEAWVAFKRRIIIPKIVPRVEKLRRLENIMMADKGGLILFPQPGCYDNVYQVDFSSMYPSLIVKYNISAETVDACDDIKTELHSICLREKGIIPEALEWLIKRKSELKRIDKERAEAIKWILVASFGYLGYRNSLFGKIEAYEMVTYLARKTLRRTMEIAEEMGLKVLHSIIDSLVVKGDNIDKFIERVEKETGLRLDHKRYNWIIFTTTRNDTPYPTRYIANMNGEIIAKGLIRENMPNIVKSFLKDVLRGLSLTRTCSDVKKVRIRDLYEKYRKRTINGEPIDYVIWIKGVPYVRGIKGFYDARLGYMGRDVNYYINYLRRVYDNVEEVISRC", "notes": "recombinant, expressed in native host S. islandicus E233S; purified as in Feng et al. 2021"}},
  "substrate": "Nc1nc2c(ncn2[C@H]2C[C@H](O)[C@@H](COP(=O)(O)OP(=O)(O)OP(=O)(O)O)O2)c(=O)[nH]1",
  "experiment": "steady-state single-nucleotide incorporation, FAM-primer gel assay, Michaelis-Menten fit",
  "type": "biochemical, Saccharolobus islandicus",
  "conditions": "pH 8.0 Tris-HCl, 40 mM KCl, 10 mM MgCl2, 11 nM enzyme, 100 nM primer-template (undamaged S0; also AP-site substrates D1-D8, L1-L8), apparent Km",
  "data": [
    {"protein": "B1", "values": [
      {"measurement": "Km", "result": "118 ± 22.7", "unit": "µM"},
      {"measurement": "kcat", "result": "0.525 ± 0.125", "unit": "s⁻¹"}
    ]}
  ]
}
